Test results as given in US20230071019A1 (RESEARCH FOUNDATION FOR THE STATE UNIVERSITY OF NEW YORK, published 2023).

Key:
avidin = target: T1, avidin (UniProt P02701 25-152); assay: phage ELISA on avidin coat without biotin-DM1
T1 construct: Negative-control coat; also called avidin alone

exatecan conjugated BSA = target: T2, exatecan conjugated BSA (bovine, UniProt P02769 25-607, exatecan conjugated to BSA; chemistry and sites not stated); assay: SPR, kinetic fit, BSA-conjugated exatecan on the chip
T2 construct: Hapten-carrier conjugate immobilised on the SPR chip; also called BSA conjugated Exatecan
T2 sequence (P02769 25-607 limits assumed): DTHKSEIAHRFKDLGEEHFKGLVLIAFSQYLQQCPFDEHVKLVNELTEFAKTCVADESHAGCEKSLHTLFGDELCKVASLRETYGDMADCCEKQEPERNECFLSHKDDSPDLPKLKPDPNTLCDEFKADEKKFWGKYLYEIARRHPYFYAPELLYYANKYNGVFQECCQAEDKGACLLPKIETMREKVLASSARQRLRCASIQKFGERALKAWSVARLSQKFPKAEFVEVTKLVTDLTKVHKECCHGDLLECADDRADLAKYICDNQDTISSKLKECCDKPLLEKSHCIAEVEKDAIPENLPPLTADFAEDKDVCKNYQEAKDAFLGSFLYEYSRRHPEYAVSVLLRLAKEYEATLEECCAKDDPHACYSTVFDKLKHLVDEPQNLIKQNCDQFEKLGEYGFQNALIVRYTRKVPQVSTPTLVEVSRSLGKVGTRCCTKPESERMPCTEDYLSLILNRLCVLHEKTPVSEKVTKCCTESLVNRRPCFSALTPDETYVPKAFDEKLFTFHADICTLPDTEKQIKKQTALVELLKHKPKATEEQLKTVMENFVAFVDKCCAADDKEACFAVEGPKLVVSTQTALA

[1] = target: T3, ado-trastuzumab emtansine; assay: SPR, kinetic assessment, immobilized T-DM1
T3 construct: Antibody-drug conjugate immobilised on a CM5 SPR chip; also called TDM1; T-DM1

[2] = target: T3, ado-trastuzumab emtansine; assay: SPR, equilibrium binding, TDM1 on a CM5 chip, 3A2 injected at 1.25-400 nM
Method: (§1) Preliminary screening of DM1/4 binders were performed using a neutravidin SPR chip with DM1-Biotin on the left channel. Phagemid purified sdAbs were flowed over the SPR chip for 2 minutes at a flow rate of 25 ul/min. After binding, sdAb was dissociated for 20 minutes. Observed sensorgrams were fit to an individual dissociation rate constant for each construct. Equilibrium and kinetic binding of 3A2 was assessed using a CM5 SPR chip with TDM1 immobilized on the left channel. […] Rate constants for 3A2-TDM1 association and dissociation were obtained through fitting of the observed sensorgrams for the 1.25, 2.5, 5, 7.5 and 10 nM injections to a 1:1 Langmuir binding model.
(§2) Anti-DM1/DM4 sdAb DF3A2 clone. […] DNA encoding for 3A2 was synthesized and expressed in the E. coli strain SHuffle and purified using nickel chromatography. Purified 3A2 was used to assess TDM1 binding using SPR. […] To obtain a secondary measure of binding kinetics sdAb injected at concentrations between 1.25-10 nM were fit to a 1:1 Langmuir binding model to obtain association and dissociation rate constants.

[3] = target: T3, ado-trastuzumab emtansine; assay: SPR, kinetic fit (1:1 Langmuir), TDM1 on a CM5 chip, 3A2 injected at 1.25-10 nM
Method: as §1, §2

[4] = target: T4, Cetuximab-calicheamicin conjugate; assay: competitive ELISA on cetuximab-calicheamicin coated plates, corrected for background
T4 construct: also called Cetuximab-calicheamcin conjugate; ADC (coated ELISA)
Method: (§3) Nunc Maxisorp 96-well plates were coated with 4 μg/ml Cetuximab or Cetuximab-calicheamicin, or 5 μg/ml Avidin. Plates were washed three times with PBST and three times with dH2O, and blocked with MPBS for 2 h at RT. For the Avidin coated plates, plates were washed three times with PBST and incubated with 1 μM Biotin-Calicheamcin. […] Plates were then washed three times with PBST, where bound sdAb was detected using an anti-His tag HRP-conjugated Ab diluted 1:1000 in MPBST. Following incubated and five washed with PBST, 100 μL of 1-Step Turbo TMB-ELISA solution was added to each well and incubated for 30 minutes. The reaction was quenched by adding 100 μL of Stop solution to each well and absorbance was measured at 450 nm. Alternatively, wells can also be incubated with 1:1000 diluted anti-His tag AP-conjugated Ab, instead of HRP conjugated Ab.

[5] = target: T4, Cetuximab-calicheamicin conjugate; assay: competitive ELISA on cetuximab-calicheamicin coated plates, 64 µM CG4 with or without 10 µM free calicheamicin
Method: as §3

cetuximab = target: T5, cetuximab; assay: ELISA, purified CG4 on unconjugated cetuximab coat, anti-His HRP detection
T5 construct: not shown: the constant regions
Method: as §3

T1 sequence (P02701 25-152 limits assumed): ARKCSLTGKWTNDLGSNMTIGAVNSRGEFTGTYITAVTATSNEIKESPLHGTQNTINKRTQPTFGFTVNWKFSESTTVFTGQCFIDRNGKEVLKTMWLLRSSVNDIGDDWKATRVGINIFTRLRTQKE

B1: T3B5 (VHH)
VHH: QVQLVQSGGGLVQPGGSLRLSCTASGRTFSRYTMGWFRQAPGKEREFVAAISTGGLRQYFGDSVRGRCTISRDNAKSTVYLQMDSLKPEDTAVYYCAANWGTSYYWGQGTQVTVSS
notes: tested as phage media; also called DT3B5
avidin
  binding result: no binding

B2: T3H3 (VHH)
VHH: EVQLVESGGGLVQPGGSLRLSCAASGRTFSHDHMGWFRQAPGKEREFVAAISWTSSTYYGDSVKGRFTISRSNAKNTVYLQMNSLKPEDTAIYYCSWGVGYWGQGTQVTVSS
notes: tested as phage media; also called DT3H3
avidin
  binding result: no binding

B3: Anti-Exatecan sdAb TF7 clone (VHH)
VHH: QVQLQESGGGLAQPGGSLRVSCATSGFTFSSNYYISWVRQAPGRGLEWVSAINTGDGSTYYAHSVKGRFTISRDNAKNTLYLQMNSLKPEDTALYYCARSSLEGRIEKPYDYWGQGTQVTVSS
notes: Llama single domain antibody; also called anti-camptothecin sdAb (TF7)
Exatecan conjugated BSA
  Kd: 10 nM

B4: Anti-DM1/DM4 sdAb DF4B12 clone (VHH)
VHH: EVQLVESGGGLVQPGGSLRLSCAASGSIFGISYMGWYRQAPGKQREPVALITSGGDTAYGDSVKGRFTISRDNAKNTVYLQMNSLTPEDTSTFYCAAGFYRSDSPNRYDYWGQGTQVTVSS
notes: Purified sdAb; tag not described
avidin
  binding result: no binding
[1]
  Kd: 4.33 nM

B5: Anti-DM1/DM4 sdAb DF3A2 clone (VHH)
VHH: QVQLQESGGGLVQPGGSLRLSCAASGGIFGISYMGWYRQAPGKQREPVALITSGGDTAYGDSVKGRFAISRDNAKNTVYLQMNSLKPDDTSAYYCAAGFYRSDSPNRYDYWGQGTQVTVSS
notes: also called sdAb 3A2
[2]
  Kd: 25 nM
avidin
  binding result: no binding
[3]
  Kd: 12.3 nM

B6: Anti-DM1/DM4 sdAb DF3A4 clone (VHH)
VHH: QVQLQESGGGLVQPGGSLRLSCAASGSIFGISYMGWYRQAPGKQREPVALITSGGSTYYADSVKGRVTISRDNAKKTVYLQMNSLRPEDTSTYYCAAGFYRSDSPNRYDYWGQGTQVTVSS
notes: as for B4
avidin
  binding result: no binding
[1]
  Kd: 5.59 nM

B7: Anti-Calicheamicin sdAb CG4 clone (VHH)
VHH: QVQLQESGGGLVQAGGSLRLSCAASGRTISGYAMGWFRQAPGKERDLVAAISRSGTSTYYADSVKGRFTISRDNAKNTVYLQMNSLKPEDTAVYYCNAPGGIWGQGTQVTVSS
[4]
  fold decrease of ELISA signal on addition of 10 µM free calicheamicin, corrected for background: ~3.3 fold
[5]
  fold decrease of ELISA signal on addition of 10 µM free calicheamicin: 2.5 fold
cetuximab
  binding result: binds

B8: T3B3 (VHH)
VHH: EVQLVESGGGLVQAGGSLRLSCALSGGTLRSYTMGWIRQAPGKEREFVAGNRWSGGRTYYADSVKGRFTISGDNAENTVYLQMNSLKPEDTAVYYCTADVTEYGEDSSAYWGRGTQVTVSS
notes: tested as phage media; also called DT3B3
avidin
  binding result: no binding

B9: T3B4 (VHH)
VHH: QVQLQESGGGLVQAGDSLRLSCTASGRTFSRYTMGWFRQAPGKEREFVAAISTGGLRQYFGDSVRGRCTISRDNAKNTVYLQMDSLKPEDTAVYYCAATGNEYHWGRGTQVTVSS
notes: tested as phage media; also called DT3B4
avidin
  binding result: no binding
